Test results from patent publication US20160319287A1 (WESTF LISCHE WILHELMS UNIVERSIT T M NSTER, published 2016).
No end group written: not given here. FI = 5(6)-carboxyfluorescein

Legend:
Assay in all cases: cell-based or functional assay
MBP-M1^C-EGFP-H6 = molecular target: MBP-M1^C-EGFP-H6
MBP-M1^C-mRFP-H6 = molecular target: MBP-M1^C-mRFP-H6
MBP-M1^C-Gluc-H6 = MBP-M1^C-Gluc-H6 (Gaussia princeps)
MBP-M1^C-Ubc9-H6 = MBP-M1^C-Ubc9-H6 (murine, UniProt P63280 1-158)
MBP-M1^C-SENP1-H6 = molecular target: T1, MBP-M1^C-SENP1-H6 (human, UniProt Q9P0U3 419-644)
T1 sequence (Q9P0U3 whole entry, looked up): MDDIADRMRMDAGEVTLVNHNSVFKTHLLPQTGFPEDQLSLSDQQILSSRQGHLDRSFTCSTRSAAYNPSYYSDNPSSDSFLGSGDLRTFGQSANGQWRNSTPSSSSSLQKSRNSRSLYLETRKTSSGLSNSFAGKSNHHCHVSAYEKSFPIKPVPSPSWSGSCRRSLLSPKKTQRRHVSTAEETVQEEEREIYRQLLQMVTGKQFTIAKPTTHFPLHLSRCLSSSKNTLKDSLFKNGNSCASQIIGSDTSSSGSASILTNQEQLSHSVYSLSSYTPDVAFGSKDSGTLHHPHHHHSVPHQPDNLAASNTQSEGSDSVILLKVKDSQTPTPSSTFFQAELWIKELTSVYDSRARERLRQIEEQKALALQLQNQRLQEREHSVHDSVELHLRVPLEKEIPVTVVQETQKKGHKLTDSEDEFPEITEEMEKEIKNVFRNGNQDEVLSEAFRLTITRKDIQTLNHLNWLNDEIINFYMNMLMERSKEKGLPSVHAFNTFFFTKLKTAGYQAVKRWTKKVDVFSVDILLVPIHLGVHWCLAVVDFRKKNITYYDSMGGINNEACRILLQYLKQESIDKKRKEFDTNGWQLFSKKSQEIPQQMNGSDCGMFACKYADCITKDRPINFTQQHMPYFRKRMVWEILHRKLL

[1] = molecular target: WT^C-Trx-H6 (AceL-TerL Int^C fused to hexahistidine-tagged thioredoxin) (UniProt P0AA25 2-109 = thioredoxin)
Sequence of WT^C-Trx-H6 (AceL-TerL Int^C fused to hexahistidine-tagged thioredoxin) (P0AA25 other isoform, or with tags, fused parts or gaps): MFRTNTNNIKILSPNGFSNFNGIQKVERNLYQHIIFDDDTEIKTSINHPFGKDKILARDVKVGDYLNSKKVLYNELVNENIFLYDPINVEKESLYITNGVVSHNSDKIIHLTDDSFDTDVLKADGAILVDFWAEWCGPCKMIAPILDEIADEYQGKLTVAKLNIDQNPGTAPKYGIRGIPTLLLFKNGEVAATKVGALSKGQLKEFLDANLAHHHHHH

Sequence of MBP-M1^C-Gluc-H6 (Gaussia princeps) (main, as listed by the source): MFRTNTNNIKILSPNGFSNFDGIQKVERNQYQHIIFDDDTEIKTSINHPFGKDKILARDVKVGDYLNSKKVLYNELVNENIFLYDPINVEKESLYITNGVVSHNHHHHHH
Sequence of MBP-M1^C-EGFP-H6 (main, as listed by the source): as above
Sequence of MBP-M1^C-mRFP-H6 (main, as listed by the source): as above
Sequence of MBP-M1^C-Ubc9-H6 (P63280 other isoform, or with tags, fused parts or gaps): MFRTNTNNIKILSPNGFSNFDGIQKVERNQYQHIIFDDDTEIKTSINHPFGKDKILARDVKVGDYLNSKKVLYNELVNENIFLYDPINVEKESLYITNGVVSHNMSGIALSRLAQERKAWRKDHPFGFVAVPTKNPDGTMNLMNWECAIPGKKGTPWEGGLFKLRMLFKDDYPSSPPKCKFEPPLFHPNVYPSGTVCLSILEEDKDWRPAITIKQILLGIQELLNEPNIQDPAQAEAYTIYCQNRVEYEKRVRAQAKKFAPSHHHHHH

## {FI}-KKEFECVYGDTMVETEDGKIKIEDLYKRLA [pepWT^N (FI-KKEFE-IntN), synthetic peptide with the Int^N of the AceL-TerL intein]
MBP-M1^C-EGFP-H6
  yield of the N-terminally labelled splice product after 3 h at 8° C.: ~80%
MBP-M1^C-mRFP-H6
  yield of the N-terminally labelled splice product after 3 h at 8° C.: ~80%
MBP-M1^C-Gluc-H6
  yield of the N-terminally labelled splice product after 3 h at 8° C.: ~80%
MBP-M1^C-Ubc9-H6
  yield of the N-terminally labelled splice product after 3 h at 8° C.: ~80%
MBP-M1^C-SENP1-H6
  yield of the N-terminally labelled splice product after 3 h at 8° C.: ~80%
[1]
  splicing rate at 37° C. against 8° C.: ~50 fold slower
  t½ of splicing at 8° C.: 7.2 min
